Data from patent US20240067725A1.

Target: full-length human LAG-3 expressed on cells (human) (UniProt P18627)
Test: cell-based or functional assay

Sequence of full-length human LAG-3 expressed on cells (human) (P18627 23-525 limits assumed): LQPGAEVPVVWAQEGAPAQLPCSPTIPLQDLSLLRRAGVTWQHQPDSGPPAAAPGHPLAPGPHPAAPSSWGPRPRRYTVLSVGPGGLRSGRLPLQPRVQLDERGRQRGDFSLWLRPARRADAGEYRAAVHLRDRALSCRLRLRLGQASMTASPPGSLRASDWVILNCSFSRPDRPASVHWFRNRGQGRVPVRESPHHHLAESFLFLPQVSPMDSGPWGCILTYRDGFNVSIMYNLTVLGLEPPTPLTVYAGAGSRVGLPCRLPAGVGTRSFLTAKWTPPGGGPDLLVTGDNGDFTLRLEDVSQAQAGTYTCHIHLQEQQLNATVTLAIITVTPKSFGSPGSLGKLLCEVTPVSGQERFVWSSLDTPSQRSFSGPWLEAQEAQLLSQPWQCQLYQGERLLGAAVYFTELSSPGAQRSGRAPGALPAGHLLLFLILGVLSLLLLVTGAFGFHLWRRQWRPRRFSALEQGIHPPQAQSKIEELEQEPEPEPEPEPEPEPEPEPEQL

B1: BMK7 (antibody, from another filing, V domains shown)
VH: QVQLVESGGGVVQPGRSLRLSCVASGFTFSSYGMHWVRQAPGKGLEWVAIIWYDGSNKYYADSVKGRFTISRDNSKNTQYLQMNSLRAEDTAVYYCASVATSGDFDYYGMDVWGQGTTVTVSS
VL: EIVLTQSPATLSLSPGERTTLSCRASQRISTYLAWYQQKPGQAPRLLIYDASKRATGIPARFSGSGSGTGFTLTISSLEPEDFAVYYCQQRSNWPLTFGGGTKVEIK
EC50 (nM), IL-2 luciferase reporter gene assay: 2.65 nM
